# Measured values reported in paper PMC10700544, “Acetylation regulates the oligomerization state and activity of RNase J, the Helicobacter pylori major ribonuclease” (Nature Communications, 2023).
# B1: RNase J residues 139–691 (H. pylori strain 26695) with a C-terminal hexa-histidine tag (domain or fragment, Helicobacter pylori strain 26695, UniProt P56185 137-689, looked up)
# chain: SKASVKITPLGGLGEIGGNMMVIETPKSAIVIDAGMSFPKEGLFGVDILIPDFSYLHQIKDKIAGIIITHAHEDHIGATPYLFKELQFPLYGTPLSLGLIGSKFDEHGLKKYRSYFKIVEKRCPISVGEFIIEWIHITHSIIDSSALAIQTKAGTIIHTGDFKIDHTPVDNLPTDLYRLAHYGEKGVMLLLSDSTNSHKSGTTPSESTIAPAFDTLFKEAQGRVIMSTFSSNIHRVYQAIQYGIKYNRKIAVIGRSMEKNLDIARELGYIHLPYQSFIEANEVAKYPDNEILIVTTGSQGETMSALYRMATDEHRHISIKPNDLVIISAKAIPGNEASVSAVLNFLIKKEAKVAYQEFDNIHVSGHAAQEEQKLMLRLIKPKFFLPVHGEYNHVARHKQTAISCGVPEKNIYLMEDGDQVEVGPAFIKKVGTIKSGKSYVDNQSNLSIDTSIVQQREEVASAGVFVATIFVNKNKQALLESSQFSSLGLVGFKDEKPLIKEIQGGLEVLLKSSNAEILNNPKKLEDHTRNFIRKALFKKFRKYPAIICHAHSF
# notes: the results say 137–691); One monomer in the asymmetric unit; the tetramer (dimer-of-dimers) is generated by crystal symmetry; The CTD (587–691) is poorly ordered in the crystal; also called RNase J 139–691; C1hRSEj; source: E. coli, co-expressed with RhpA 21–465, purified (HiTrap Ni column, HALO resin flow-through, S200 SEC)
# Target: the molecule itself
# Test: crystal structure; crystals from 0.1 M HEPES pH 7.5, 25% wt/v polyethylene glycol 1000; space group P4(1)22; one monomer in the asymmetric unit, tetramer by crystal symmetry
protein,measurement,value
B1,stoichiometry N,4
